This note sets out measurements from patent CN110156895A (SHANGHAI JIABEI BIOMEDICAL TECH CO LTD, dated 2019).

For test [1], the target named is T1, 人PD-L1胞外区-6His (human, UniProt Q9NZQ7 19-238).
T1 construct: also called PD-L1-6His; 人PD-L1胞外结构区-6His蛋白
The test is described as follows: SPR (Biacore), multi-cycle kinetics; antibody captured on Protein A chip, PD-L1 as analyte from 40 nM in 2-fold dilutions, 6 concentrations. (Surface plasmon resonance follows binding to a sensor surface in real time, without labels.)

Test [2] addresses T1, 人PD-L1胞外区-6His. The test is described as follows: AlphaLISA competition: antibody titrated against binding of His-tagged PD-L1 to biotinylated PD-1. Background: Alpha assays give light when donor and acceptor beads are brought close together.

T1 sequence (Q9NZQ7 other isoform, or with tags, fused parts or gaps): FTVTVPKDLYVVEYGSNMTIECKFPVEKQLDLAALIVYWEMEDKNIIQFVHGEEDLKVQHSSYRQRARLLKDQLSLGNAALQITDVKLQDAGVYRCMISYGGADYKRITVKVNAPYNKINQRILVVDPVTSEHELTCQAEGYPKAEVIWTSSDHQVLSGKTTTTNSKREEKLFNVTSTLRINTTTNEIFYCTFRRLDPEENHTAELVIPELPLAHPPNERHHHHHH

B1: 抗PD-L1全人源单克隆抗体 (antibody, V domains shown)
VH: QVQLVQSGGELKRPGSSVKVSCKASGGTFSSYAISWVRQAPGQGLEWMGRIIPIFGTANYAQKFQGRVTITADESTSTAYMELSSLRSEDTAVYYCASSSYRHFAFDIWGQGTTVTVSS
VL: QSALTQPASVSGSPGQSITISCTGTSSDVGSYNLVSWYQQHPGKAPKLMIYEVTKRPSGVSNRFSGSKSGNTASLTISGLQAEDEADYYCSSYAGSNNLVFGGGTKVTVL
notes: also called 抗PD-L1抗体; 抗PD-L1全长抗体
Turning to B1, binding with 人PD-L1胞外区-6His [1] was characterised by a dissociation constant (Kd) of 7.1 nM. The molecule further had an IC50 with 人PD-L1胞外区-6His [2] of 0.0372 µg/mL.

Usually Kd stands for the equilibrium constant for the complex coming apart. Broadly, the IC50 is the point on the concentration scale where inhibition reaches its midpoint.
